US8076094

Assays:
GST-H3 1-44 = GST-H3 1-44 (UniProt P68431)
[1] = tested on: GST control protein [GST: P08515]
GST-H3 1-15 T11A = GST-H3 1-15 T11A (UniProt P68431)
[2] = target: histone H3 in nucleosomes purified from HeLa cells (UniProt P68431)

Myc-PRK1, immunoprecipitated from 293 cell lysates
phosphorylation in in vitro kinase assay (32P, SDS-PAGE, autoradiography) (GST-H3 1-44): GST-H3 1-44 is phosphorylated by PRK1 | phosphorylation in in vitro kinase assay (32P, SDS-PAGE, autoradiography) [1]: The GST control protein is not phosphorylated, thus demonstrating specificity

purified recombinant PRK1 (ProQinase GmbH)
phosphorylation in in vitro kinase assay (GST-H3 1-15 T11A): mutation of threonine 11 to alanine in H3 1-15 (H3 1-15 T11A) abolishes phosphorylation | phosphorylation in in vitro kinase assay, Western blot with α-phosphoH3T11 [2]: PRK1 phosphorylates nucleosomes at H3T11
